The target in this assay is T1, Human IL-10Rβ on cells (Daudi, Jurkat, YT-1, THP-1 cell lines; primary human PBMC populations) (human, UniProt Q08334 20-325).
T1 sequence (looked up): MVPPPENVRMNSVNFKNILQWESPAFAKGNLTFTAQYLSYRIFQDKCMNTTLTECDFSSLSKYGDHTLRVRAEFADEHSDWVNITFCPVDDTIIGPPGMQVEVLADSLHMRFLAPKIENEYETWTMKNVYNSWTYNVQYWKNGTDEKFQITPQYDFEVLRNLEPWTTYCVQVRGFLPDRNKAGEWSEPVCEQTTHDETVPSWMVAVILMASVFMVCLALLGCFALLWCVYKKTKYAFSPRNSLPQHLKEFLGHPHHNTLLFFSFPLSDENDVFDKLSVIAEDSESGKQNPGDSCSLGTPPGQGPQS
As to the kind of experiment: cell-based or functional assay.

B1: Affinity matured IL-10 clone 5.1 (Super-10), soluble (ligand)
chain: SPGQGTQSENSCTHFPGYLPNMLRDLRDAFSRVKTFFQMKDQLDNLLLKESLLEDFKGYLGCQALSEMIQFYLEEVMPQAENQDPDIKAHVQSLGENLKDLRLWLRRCHRFLPCENKSKAVEQVKNAFNKLQEKGIYKAMSEFDIFINYIEAYMTMKIRNHHHHHH
Consider B1, for which the “ratio of super-10 to 10-DE STAT3 Emax in Daudi cells” value is > 20 ratio (super-10:10-DE) and the “ratio of super-10 to 10-DE STAT3 Emax in THP-1 cells” value is ~1 ratio (super-10:10-DE).

The values above are taken from patent publication US20230192796A1 (published 2023).
